The text below walks through data of patent US20040229797A1.

The test has as its target HA-tagged Filamin 1 (HA-Filamin 1). Briefly: cell-based or functional assay.

As for “S-FILIP (short form Filamin-interacting protein) (from UniProt Q8K4T4 248-965)”, the relative amount of recombinant Filamin 1 and GFP worked out at 1.8.
